# Source: patent US7223596B2, “Malignant endothelial cell line and uses thereof in models for angiogenesis” (Wisconsin Alumni Research Foundation, priority 2003, dated 2007)
# B1: Interleukin-12 (protein, UniProt P43431 23-215; P43432 23-335, looked up)
# Interleukin-12 subunit alpha: RVIPVSGPARCLSQSRNLLKTTDDMVKTAREKLKHYSCTAEDIDHEDITRDQTSTLKTCLPLELHKNESCLATRETSSTTRGSCLPPQKTSLMMTLCLGSIYEDLKMYQTEFQAINAALQNHNHQQIILDKGMLVAIDELMQSLNHNGETLRQKPPVGEADPYRVKMKLCILLHAFSTRVVTINRVMGYLSSA
# Interleukin-12 subunit beta: MWELEKDVYVVEVDWTPDAPGETVNLTCDTPEEDDITWTSDQRHGVIGSGKTLTITVKEFLDAGQYTCHKGGETLSHSHLLLHKKENGIWSTEILKNFKNKTFLKCEAPNYSGRFTCSWLVQRNMDLKFNIKSSSSSPDSRAVTCGMASLSAEKVTLDQRDYEKYSVSCQEDVTCPTAEETLPIELALEARQQNKYENYSTSFFIRDIIKPDPPKNLQMKPLKNSQVEVSWEYPDSWSTPHSYFSLKFFVRIQRKKEKMKETEEGCNQKGAFLVEKTSTEVQCKGGNVCVQAQDRYYNSSCSKWACVPCRVRS
# Key:
# SB-HSA tumors = assay: treatment of SB-HSA tumor-bearing mice (subcutaneous canine hemangiosarcoma xenograft); type: in vivo; conditions: NOD-SCID mice injected s.c. with SB-HSA cells, vs PBS control
# Protocol: For example, IL-12 was also shown, to suppress the growth of canine hemangiosarcoma in vivo in this model. IL-12 is a cytokine with pleotropic effects including suppression of angiogenesis due to in vivo inhibition of endothelial cell growth. This activity is mediated by downstream chemokines such as IP-10 and Mig, which are induced by interferon-γ in response to IL-12. […] Control mice that were injected subcutaneously with SB-HSA cells and received phosphate buffered saline developed tumors at the site of cell inoculation by the second week that progressively enlarged over a 4-week observation period.
# Canine hemangiosarcoma xenografts were established in NOD-SCID mice by injection of 5×10^6 SB-HSA cells suspended in 200 μl PBS over the dorsum using a 26 gauge needle and tuberculin syringe. Mice were examined every other day until tumors were detected and measured with calipers. Animals were sacrificed when tumors reached a size of 1 cm^3.
# NOD-SCID mice were injected subcutaneously over the dorsum with SB-HSA cells (5×10^6 cells/200 μl). […] Pumps were designed to deliver 6 μl/day (1 μg IL-12/day for four weeks. The mice were examined every other day for tumor development. The two largest perpendicular diameters were measured with calipers.
# [1] = system: angiogenesis induced by SB-HSA cells; assay: corneal pocket angiogenesis assay with sponges containing SB-HSA cells; type: in vivo; conditions: BALB/c mice, sponges with 70,000 SB-HSA cells in cornea; continuous subcutaneous infusion by osmotic pump from day 2; examined one week after treatment; vs PBS-treated control
# Protocol: IL-12 is a cytokine with both immunostimulatory and antiangiogenic effects. In these experiments, sponges containing 70,000 SB-HSA cells were placed into the corneas of BALB/c mice. Two days after placement of the sponges, the mice were randomized to receive either mrIL-12 or phosphate buffered saline. Each was delivered as a continuous subcutaneous infusion by subcutaneously implanted osmotic pumps. One week after treatment, mice were injected with FITC-dextran, euthanized and the corneas examined.
# Polyvinyl sponges (Rippey, Eldorado Hills, Calif.) preirradiated with 2000 Gy of gamma irradiation (cesium source) were cut into 4×4×2 mm pieces, and 70,000 SB-HSA cells were introduced into the sponges. BALB/c mice were anesthetized with AVERTIN and a small surgical micropocket was created in the center of the avascular cornea. Sponges were then inserted into the micropocket. Eyes were examined for neovascularization daily using an ophthalmic microscope (Carl Zeiss Inc, Thornwood, N.Y.). […] Phase contrast and fluorescence microscopy were used to visualize the general layout of the cornea and the presence of perfused blood vessels, respectively (Muthukkaruppan, V. and Auerbach, R. Science 1979 205:1416–1418).
molecule,measurement,setting,value
B1,growth of tumors,SB-HSA tumors; continuous subcutaneous infusion 1 μg IL-12/day for four weeks,initially suppressed for two weeks followed by slower growth
same,tumor size at end of observation period,"SB-HSA tumors; continuous subcutaneous infusion 1 μg IL-12/day, end of 4-week observation period",significantly smaller size
same,corneal neovascularity,[1],significantly less corneal neovascularity
